Laboratory results taken from publication PMC11199644, “Structural and mechanistic insights into a lysosomal membrane enzyme HGSNAT involved in Sanfilippo syndrome” (Nature Communications, 2024).

Target: the molecule itself
Assay: cryo-EM structure; purified HGSNAT in 20 mM HEPES pH 7.4, 150 mM NaCl, 0.01% GDN; apo (two conformations) or with acetyl-CoA, CoA, acetyl-CoA + MU-βGlcN, CoA + MUF-NAG; six structures, all dimers

B1: heparan sulfate acetyl-CoA:α-glucosaminide N-acetyltransferase (HGSNAT) (enzyme, human, UniProt Q68CP4-2 1-635, looked up)
chain: MSGAGRALAALLLAASVLSAALLAPGGSSGRDAQAAPPRDLDKKRHAELKMDQALLLIHNELLWTNLTVYWKSECCYHCLFQVLVNVPQSPKAGKPSAAAASVSTQHGSILQLNDTLEEKEVCRLEYRFGEFGNYSLLVKNIHNGVSEIACDLAVNEDPVDSNLPVSIAFLIGLAVIIVISFLRLLLSLDDFNNWISKAISSRETDRLINSELGSPSRTDPLDGDVQPATWRLSALPPRLRSVDTFRGIALILMVFVNYGGGKYWYFKHASWNGLTVADLVFPWFVFIMGSSIFLSMTSILQRGCSKFRLLGKIAWRSFLLICIGIIIVNPNYCLGPLSWDKVRIPGVLQRLGVTYFVVAVLELLFAKPVPEHCASERSCLSLRDITSSWPQWLLILVLEGLWLGLTFLLPVPGCPTGYLGPGGIGDFGKYPNCTGGAAGYIDRLLLGDDHLYQHPSSAVLYHTEVAYDPEGILGTINSIVMAFLGVQAGKILLYYKARTKDILIRFTAWCCILGLISVALTKVSENEGFIPVNKNLWSLSYVTTLSSFAFFILLVLYPVVDVKGLWTGTPFFYPGMNSILVYVGHEVFENYFPFQWKLKDNQSHKEHLTQNIVATALWVLIAYILYRKKIFWKI
notes: human HGSNAT, open reading frame of UniProt Q68CP4-2 (short isoform 2, 28 residues from the N-terminal missing); The purified sample held two species, the full-length protein and the auto-cleaved form (alpha and beta chains still together); A thrombin site lies between HGSNAT and the tags, so some residues of it may be left after cleavage; also called TMEM76; heparan-α-glucosaminide …
stoichiometry N: 2
